Laboratory results as given in patent publication US20240376185A1 (SMIVET B V, published 2024).

T1: recombinant tetanus toxin fragment C (rTTC) (Clostridium tetani, UniProt P04958 865-1315)
T1 sequence: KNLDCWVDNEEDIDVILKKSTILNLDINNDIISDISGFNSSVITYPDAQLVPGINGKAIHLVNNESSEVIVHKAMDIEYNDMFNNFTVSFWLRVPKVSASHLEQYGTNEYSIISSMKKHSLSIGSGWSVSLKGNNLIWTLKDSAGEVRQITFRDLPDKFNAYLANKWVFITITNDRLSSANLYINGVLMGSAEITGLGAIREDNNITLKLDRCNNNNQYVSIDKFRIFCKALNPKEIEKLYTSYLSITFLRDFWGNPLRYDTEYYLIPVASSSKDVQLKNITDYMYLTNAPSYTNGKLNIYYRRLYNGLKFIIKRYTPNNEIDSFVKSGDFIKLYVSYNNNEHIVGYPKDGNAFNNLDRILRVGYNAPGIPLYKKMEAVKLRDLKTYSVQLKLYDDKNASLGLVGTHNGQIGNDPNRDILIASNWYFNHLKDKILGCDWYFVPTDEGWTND

T2: recombinant tetanus toxin fragment C (rTTC) (Clostridium tetani, UniProt P04958 865-1315)
T2 sequence: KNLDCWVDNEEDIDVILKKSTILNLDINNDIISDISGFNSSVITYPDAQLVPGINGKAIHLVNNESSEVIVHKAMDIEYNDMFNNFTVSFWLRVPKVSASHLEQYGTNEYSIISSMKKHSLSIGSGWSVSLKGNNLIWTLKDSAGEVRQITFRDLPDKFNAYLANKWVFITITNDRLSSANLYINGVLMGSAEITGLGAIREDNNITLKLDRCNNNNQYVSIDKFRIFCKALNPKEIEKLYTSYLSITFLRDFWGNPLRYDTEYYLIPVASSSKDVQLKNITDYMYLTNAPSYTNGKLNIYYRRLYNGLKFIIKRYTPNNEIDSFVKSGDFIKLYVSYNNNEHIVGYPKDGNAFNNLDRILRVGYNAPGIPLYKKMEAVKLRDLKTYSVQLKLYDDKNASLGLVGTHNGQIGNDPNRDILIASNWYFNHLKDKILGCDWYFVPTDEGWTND

B1: SVT29L (VHH)
VHH: QVQLQESGGGLVQTGGSLTLSCRAYGRAFDNYHFGWFRQAPGKDREFVASISWKGGSTYRANFALGRFTSSVNRGESSVYLHMSGLTPEDTATYYCAAHDGGDWNYHTGMDYWGKGILVTVSS
B2: SVT15 (VHH)
VHH: QVQLQESGGGLVQTGGSLRLSCRASGRAFANYHFGWFRQAPGKDREFVASISWKGGSTYYANFALGRFTSSVDRAESSVYLQMSGLTPEDTATYYCAAHDGGDWNYHTGMDYWGKGILVTVSS
B3: SVT29 (VHH)
VHH: QVQLQESGGGLVQTGGSLTLSCRAYGRAFDNYHFGWFRQAPGKDREFVASISWKGGSTYRANFALGRFTSSVNRGESSVYLHMSGLTPEDTATYYCAAHDGGDWNYHTGMDYWGKGILVTVSS
B4: SVT31L (VHH)
VHH: QVQLQESGGGSVQAGGSLTLSCAASEFSYNDYTIAWFRRAAGKGRVEDGEGVASITKSYDRAYDNRIHYADSVKGRFTISRDNAKNTVYLQMTSLNPSDTAVYYCALDITPPGGIGASLTEGFLFDYWGQGTQVTVSS
B5: SVT08 (VHH)
VHH: QVQLQESGGGSVQAGGSLRLSCTASEFSYNDYTIAWFRRAAGKGRVEDGEGVASITTSYDRAYDNRIHYGDSVKGRFTISRDNAKNTVYLQMTNLNPSDTAVYYCGLDITPPGGIGASLTEGFLFDYWGQGTQVTVSS
B6: SVT31 (VHH)
VHH: QVQLQESGGGSVQAGGSLTLSCAASEFSYNDYTIAWFRRAAGKGRVEDGEGVASITKSYDRAYDNRIHYADSVKGRFTISRDNAKNTVYLQMTSLNPSDTAVYYCALDITPPGGIGASLTEGFLFDYWGQGTQVTVSS
B7: SVT06 (VHH)
VHH: QVQLQESGGGSVQAGGSLRLSCTASELSYDDYTIAWFRRAAGEGRVEDGEGVASITKSYDRAYDNKINYGHSVKGRFTISRDNAKNTVYLQMTDLLPSDTAVYYCALDITPPGGVGASLTEGFLFDYWGQGTQVTVSS
B8: SVT16 (VHH)
VHH: QVQLQESGGGSVQAGDSLRLSCAASGRTISNYAMGWFRQAPGKQREFVAAISRSDNTYYTDSVKGRFTISRDNAKNTLYLQMNSLKPEETAVYYCAADPNLMYESKWKYRALEAWGQGTLVTVSS
B9: SVT25 (VHH)
VHH: QVQLQESGGGLVQAGGSLRLSCAASGRTISVYAMGWFRQAPGKQREFVAAISRSDNTYYTDSVKGRFTISRDNVKNTLYLQMNSLKPEETAVYYCAADPNLMYETKWKYRALEAWGQGTLVTVSS
B10: SVT25L (VHH)
VHH: QVQLQESGGGLVQAGGSLRLSCAASGRTISVYAMGWFRQAPGKQREFVAAISRSDNTYYTDSVKGRFTISRDNVKNTLYLQMNSLKPEETAVYYCAADPNLMYETKWKYRALEAWGQGTLVTVSS
B11: SVT05L (VHH)
VHH: QVQLQESGGGLVQPGGSLRLSCSASGFSFTDDYGIGWFRSGPGKGREAVAPIADREAVAAIALSDGNTYYSASAKGRFTISRDNAKSTAYLQMNNLKPEDTATYYCAADFWGYGMSWPMATLWEYWGQGIQVTVSS
B12: SVT13 (VHH)
VHH: QVQLQESGGGLVQAGGSLRLSCAVSGTNFDDYAIGWFRQAPGKRREAVACISKTDGVTRYGNGVKGRFTISSDEARNTVFLQMNDLKDEDTAIYYCIGDFKSCGMGYKPIDHWGRGIQVTVSS
B13: SVT22 (VHH)
VHH: QVQLQESGGGLVQAGESLRLSCTASGISFDDYAIGWFRQAPGQQRKGVACISKADGRTDYLGSVKGRFTLSTDNTKNTVHLQMNNLKPEDTALYTCAAEYKSCGMGYKPIDYWGQGMQVTVSS
B14: SVT20 (VHH)
VHH: QVQLQQSGGGLVQAGGSLRLSCAASGRTMSSYAMGWFRQAPGKQREFVAAISRSGGNTYYTDSVKGRFTISRDNAKNTLYLQMNSLKPEETAVYYCAADPNLMYESKWKYRALEAWGQGTLVTVSS
B15: SVT20L (VHH)
VHH: QVQLQQSGGGLVQAGGSLRLSCAASGRTMSSYAMGWFRQAPGKQREFVAAISRSGGNTYYTDSVKGRFTISRDNAKNTLYLQMNSLKPEETAVYYCAADPNLMYESKWKYRALEAWGQGTLVTVSS
B16: SVT34 (VHH)
VHH: QVQLQESGGGLVQPGGSLRLSCAASGRTISSYAMGWFRQAPGKQREFVAAISRSGGNTYYTDSVKGRFIISRDNAKNTLYLQMNNLKPEETAVYYCAADPNLMYESKWKYRALEAWGQGTLVTVSS

Columns and labels:
[1] = target: T3, tetanus neurotoxin (TeNT), authentic tetanus holotoxin (Clostridium tetani, UniProt P04958 2-1315); assay: GT1b-TeNT inhibition ELISA, EC at A450 0.59
T3 sequence (P04958 2-457 limits assumed, chain 1 of 2): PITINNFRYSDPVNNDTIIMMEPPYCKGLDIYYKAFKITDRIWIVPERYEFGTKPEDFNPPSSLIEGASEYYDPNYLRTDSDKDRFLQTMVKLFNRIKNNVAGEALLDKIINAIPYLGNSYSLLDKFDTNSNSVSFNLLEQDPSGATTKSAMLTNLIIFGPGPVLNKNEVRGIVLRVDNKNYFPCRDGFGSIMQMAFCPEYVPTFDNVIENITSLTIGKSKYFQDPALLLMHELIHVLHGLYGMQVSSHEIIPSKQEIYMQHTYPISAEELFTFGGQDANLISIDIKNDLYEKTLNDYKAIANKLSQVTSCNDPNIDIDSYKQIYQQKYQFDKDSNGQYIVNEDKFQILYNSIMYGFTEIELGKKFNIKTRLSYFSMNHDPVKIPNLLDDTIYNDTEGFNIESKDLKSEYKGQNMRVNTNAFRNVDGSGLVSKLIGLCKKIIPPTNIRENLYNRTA
T3 sequence (P04958 458-1315 limits assumed, chain 2 of 2): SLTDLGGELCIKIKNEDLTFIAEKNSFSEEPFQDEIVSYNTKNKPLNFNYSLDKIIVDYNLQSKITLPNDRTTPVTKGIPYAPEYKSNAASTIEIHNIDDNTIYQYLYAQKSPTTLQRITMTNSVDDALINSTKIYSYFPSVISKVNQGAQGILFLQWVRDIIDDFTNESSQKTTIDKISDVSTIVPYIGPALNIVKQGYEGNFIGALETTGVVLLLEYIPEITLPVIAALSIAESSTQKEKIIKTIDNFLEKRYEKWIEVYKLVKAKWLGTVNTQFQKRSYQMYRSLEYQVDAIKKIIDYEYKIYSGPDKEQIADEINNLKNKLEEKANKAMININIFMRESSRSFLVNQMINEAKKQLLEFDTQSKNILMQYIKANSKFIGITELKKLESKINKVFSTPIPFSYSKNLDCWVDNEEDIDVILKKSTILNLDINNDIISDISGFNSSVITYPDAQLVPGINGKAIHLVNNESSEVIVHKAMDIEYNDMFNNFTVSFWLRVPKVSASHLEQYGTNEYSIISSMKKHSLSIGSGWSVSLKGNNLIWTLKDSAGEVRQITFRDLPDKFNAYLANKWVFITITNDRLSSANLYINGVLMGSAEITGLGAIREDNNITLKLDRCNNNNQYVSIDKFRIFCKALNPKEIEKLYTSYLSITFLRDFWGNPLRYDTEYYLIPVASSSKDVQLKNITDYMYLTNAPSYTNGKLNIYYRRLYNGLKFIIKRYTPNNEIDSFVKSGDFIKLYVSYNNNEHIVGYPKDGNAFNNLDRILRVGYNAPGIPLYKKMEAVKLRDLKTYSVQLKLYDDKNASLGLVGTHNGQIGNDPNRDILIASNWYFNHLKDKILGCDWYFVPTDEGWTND

[2] = target: T1, recombinant tetanus toxin fragment C …; assay: ELISA, directly coated rTTC, unlabelled binder
[3] = target: T3, tetanus neurotoxin (TeNT), authentic …; assay: ELISA, TeNT captured with cAb-TT2, unlabelled binder
[4] = target: T3, tetanus neurotoxin (TeNT), authentic …; assay: ELISA, TeNT captured with cAb-TT2, biotinylated binder
[5] = target: T3, tetanus neurotoxin (TeNT), authentic …; assay: GT1b-TeNT inhibition ELISA, unlabelled binder
[6] = target: T3, tetanus neurotoxin (TeNT), authentic …; assay: ELISA, directly coated TeNT, biotinylated binder
[7] = target: T3, tetanus neurotoxin (TeNT), authentic …; assay: ELISA, directly coated TeNT, unlabelled binder
[8] = target: T2, recombinant tetanus toxin fragment C …; assay: ELISA, directly coated rTTC, E. coli supernatant
[9] = target: T4, tetanus neurotoxin (TeNT), authentic tetanus holotoxin (Clostridium tetani, UniProt P04958 2-1315); assay: ELISA, cAb-TT2 captured TeNT, E. coli supernatant
T4 sequence (P04958 2-457 limits assumed, chain 1 of 2): as the sequence (P04958 2-457 limits assumed, chain 1 of 2) above
T4 sequence (P04958 458-1315 limits assumed, chain 2 of 2): as the sequence (P04958 458-1315 limits assumed, chain 2 of 2) above

[10] = target: T4, tetanus neurotoxin (TeNT), authentic …; assay: ELISA, directly coated TeNT, E. coli supernatant
[11] = target: T4, tetanus neurotoxin (TeNT), authentic …; assay: GT1b-TeNT inhibition ELISA (no SDA: 1.302, 1.257)

Binder | concentration giving A450 of 0.59 [1] [µg/mL] | maximal absorbance at 450 nm [2] | EC resulting in A450 0.15 [3] [ng/mL] | maximal absorbance at 450 nm [3] | EC resulting in A450 0.2 [4] [ng/mL] | maximal absorbance at 450 nm [4] | minimal absorbance at 450 nm [5] | EC resulting in A450 0.4 [6] [ng/mL] | maximal absorbance at 450 nm [6] | EC resulting in A450 0.2 [7] [ng/mL] | maximal absorbance at 450 nm [7] | absorbance at 450 nm [8] [A450] | absorbance at 450 nm [9] [A450] | absorbance at 450 nm [10] [A450] | absorbance at 450 nm [11] [A450]
B1 | 0.114 | 0.58 | 6.3 | 0.429 | 14 | 0.596 | 0.135 | 6.9 | 1.13 | 2.6 | 1.52 |  |  |  | 
B2 |  |  |  |  |  |  |  |  |  |  |  | 0.099 | 0.68 | 1.03 | 0.19
B3 |  |  |  |  |  |  |  |  |  |  |  | 0.111 | 0.868 | 1.28 | 0.152
B4 | 0.986 | 0.483 | 4.3 | 0.27 | 1.5 | 1.03 | 0.568 | 0.98 | 1.43 | 2.4 | 1.32 |  |  |  | 
B5 |  |  |  |  |  |  |  |  |  |  |  | 0.13 | 0.51 | 1.07 | 0.746
B6 |  |  |  |  |  |  |  |  |  |  |  | 0.218 | 1.09 | 1.38 | 0.105
B7 |  |  |  |  |  |  |  |  |  |  |  | 0.105 | 0.683 | 1.04 | 0.72
B8 |  |  |  |  |  |  |  |  |  |  |  | 0.151 | 0.736 | 1.04 | 0.12
B9 |  |  |  |  |  |  |  |  |  |  |  | 0.211 | 0.427 | 1.14 | 0.139
B10 | 0.133 | 0.936 | 6.4 | 0.362 | 84 | 0.302 | 0.106 | 43 | 0.985 | 3.6 | 1.56 |  |  |  | 
B11 | > 1 | 0.604 | 0.86 | 0.375 | 1.7 | 0.622 | 0.655 | 0.98 | 1.26 | 0.51 | 1.29 |  |  |  | 
B12 |  |  |  |  |  |  |  |  |  |  |  | 0.128 | 0.165 | 0.762 | 0.196
B13 |  |  |  |  |  |  |  |  |  |  |  | 0.138 | 0.299 | 1.08 | 0.137
B14 |  |  |  |  |  |  |  |  |  |  |  | 0.165 | 0.685 | 1.08 | 0.132
B15 | 0.039 | 0.967 | 3.1 | 0.327 | 4.5 | 0.535 | 0.117 | 2.1 | 1.2 | 1.2 | 1.54 |  |  |  | 
B16 |  |  |  |  |  |  |  |  |  |  |  | 0.16 | 0.483 | 1.43 | 0.117
